Data taken from publication PMC4837482, “The complex binding mode of the peptide hormone H2 relaxin to its receptor RXFP1” (Nature Communications, 2016).
Changes are numbered by the printed parent chain.

Tests used:
RXFP1 [1] = molecular target: T1, RXFP1 (Homo sapiens, UniProt Q9HBX9); experiment: Eu-H2 relaxin saturation binding assay, transfected HEK293T cells; details: Mn2+ replacing Eu3+ in the DTPA cage; method not described
T1 construct: transiently transfected human embryonic kidney (HEK) 293T cells expressing full-length RXFP1 and mutants; expressed in transfected cells; host or cells: HEK293T
T1 sequence (Q9HBX9 1-757): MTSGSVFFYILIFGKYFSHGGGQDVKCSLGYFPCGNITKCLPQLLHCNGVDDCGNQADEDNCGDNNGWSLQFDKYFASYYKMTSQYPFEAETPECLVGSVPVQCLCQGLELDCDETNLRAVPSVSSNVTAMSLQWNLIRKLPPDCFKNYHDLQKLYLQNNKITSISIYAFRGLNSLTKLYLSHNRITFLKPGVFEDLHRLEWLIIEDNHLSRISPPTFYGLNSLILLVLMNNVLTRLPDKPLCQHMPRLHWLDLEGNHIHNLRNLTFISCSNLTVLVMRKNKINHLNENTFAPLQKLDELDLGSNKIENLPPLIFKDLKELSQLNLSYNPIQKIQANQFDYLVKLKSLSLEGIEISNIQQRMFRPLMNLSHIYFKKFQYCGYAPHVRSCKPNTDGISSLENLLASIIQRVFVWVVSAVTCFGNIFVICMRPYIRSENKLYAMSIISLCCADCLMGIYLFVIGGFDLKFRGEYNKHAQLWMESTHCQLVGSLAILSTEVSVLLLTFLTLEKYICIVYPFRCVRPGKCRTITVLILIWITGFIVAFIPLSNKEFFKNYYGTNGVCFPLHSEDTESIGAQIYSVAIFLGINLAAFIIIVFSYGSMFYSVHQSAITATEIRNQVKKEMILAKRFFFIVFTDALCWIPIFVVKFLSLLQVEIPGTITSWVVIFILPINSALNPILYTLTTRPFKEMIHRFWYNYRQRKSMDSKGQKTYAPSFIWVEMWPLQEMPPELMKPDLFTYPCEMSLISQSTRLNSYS

F54A/Y58A RXFP1(1–72) = molecular target: T2, F54A/Y58A RXFP1(1–72) (Homo sapiens, UniProt Q9HBX9, F76A/Y80A); experiment: Paramagnetic line-broadening (1H-15N HSQC) titration with Mn2+-DTPA-(A)-H2; type: binding; details: 50 μM F54A/Y58A RXFP1(1–72), 0.2 μM Mn2+-DTPA-(A)-H2; versus wild type
T2 construct: GB1 (N, cleaved yes); made in house; host or cells: E. coli BL21 (DE3) trxB
T2 sequence (Q9HBX9 23-94 F76A/Y80A): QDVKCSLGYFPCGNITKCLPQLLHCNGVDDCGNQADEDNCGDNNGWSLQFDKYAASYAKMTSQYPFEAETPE
Experimental: (§1) All RXFP1(1–72) protein samples for nuclear magnetic resonance (NMR) experiments were prepared from lyophilized protein in 50 mM imidazole, with 10 mM CaCl2 at pH 6.8. Recombinant human gene-2 H2 relaxin peptide was kindly provided by Corthera. EL1^(475–486)/EL2-GB1 samples were prepared as described above. Titrant and titrand were dialyzed in the same buffer in the same vessel. All NMR experiments were routinely collected at 25 °C on a 700-MHz Bruker Avance HDIII spectrometer equipped with triple resonance cryoprobe. […] Backbone assignments were made from 3D HNCACB, HNCOCACB, HNCO and HNCACO experiments. Spectra were processed using NMRPipe (ref. [43]) and typically Fourier-transformed after applying Lorentz-to-Gauss window functions in the direct dimension and cosine bells in the indirect dimensions. NMR data were analysed using SPARKY (Goddard, T.D. and Kneller, D.G., University of California, San Francisco). Assignments of the mutant RXFP1(1–72) proteins were determined from the assignments of wild-type RXFP1(1–72).
(§2) ^15N{^1H}-NOE experiments[45] (2,048 × 256 data points) were acquired with a saturation pulse of 4 s and an additional relaxation delay of 5 s. Sample conditions were 150 μM RXFP(1–72) or mutants either without or with 450 μM H2 relaxin. Binding to Mn^2+-DTPA-(A)-H2 to RXFP1(1–72) and mutants was monitored by recording 2D ^1H-^15N HSQC (2,048 × 256 data points) for 0.2 μM Mn^2+-DTPA-(A)-H2 against 50 μM RXFP1(1–72). H2 relaxin and its truncates such as A-chain (9–24), H2/I5 chimera and Phe23Ala A-chain mutant H2 were titrated into a complex of 50 μM RXFP1(1–72) and 0.2 μM Mn^2+-DTPA-(A)-H2 with increasing concentrations ranging from 5 to 50 μM.

F50A RXFP1(1–72) = molecular target: T3, F50A RXFP1(1–72) (Homo sapiens, UniProt Q9HBX9, F72A); experiment: as above; type: binding; details: 50 μM F50A RXFP1(1–72), 0.2 μM Mn2+-DTPA-(A)-H2; versus wild type
T3 construct: GB1 (N, cleaved yes); made in house; host or cells: E. coli BL21 (DE3) trxB
T3 sequence (Q9HBX9 23-94 F72A): T2 sequence (Q9HBX9 23-94 F76A/Y80A) with F50A, A54F, A58Y
Experimental: as §1, §2

F50A^Ins-RXFP1(1–72) = molecular target: T4, F50A^Ins-RXFP1(1–72) (Homo sapiens, UniProt Q9HBX9, INS72A); experiment: as above; type: binding; details: 50 μM F50A^Ins-RXFP1(1–72), 0.2 μM Mn2+-DTPA-(A)-H2; versus wild type
T4 construct: GB1 (N, cleaved yes); made in house; host or cells: E. coli BL21 (DE3) trxB
T4 sequence (Q9HBX9 with tags, fused parts or gaps INS72A): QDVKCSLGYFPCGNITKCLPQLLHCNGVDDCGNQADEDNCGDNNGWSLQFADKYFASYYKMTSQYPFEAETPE
Experimental: as §1, §2

G41A/D42A-RXFP1(1–72) = molecular target: T5, G41A/D42A-RXFP1(1–72) (Homo sapiens, UniProt Q9HBX9, D64A/G63A); experiment: as above; type: binding; details: 50 μM G41A/D42A-RXFP1(1–72), 0.2 μM Mn2+-DTPA-(A)-H2; versus wild type
T5 construct: GB1 (N, cleaved yes); made in house; host or cells: E. coli BL21 (DE3) trxB
T5 sequence (Q9HBX9 23-94 G63A/D64A): T2 sequence (Q9HBX9 23-94 F76A/Y80A) with G41A, D42A, A54F, A58Y
Experimental: as §1, §2

G45A/W46A-RXFP1(1–72) = molecular target: T6, G45A/W46A-RXFP1(1–72) (Homo sapiens, UniProt Q9HBX9, G67A/W68A); experiment: as above; type: binding; details: 50 μM G45A/W46A-RXFP1(1–72), 0.2 μM Mn2+-DTPA-(A)-H2; versus wild type
T6 construct: GB1 (N, cleaved yes); made in house; host or cells: E. coli BL21 (DE3) trxB
T6 sequence (Q9HBX9 23-94 G67A/W68A): T2 sequence (Q9HBX9 23-94 F76A/Y80A) with G45A, W46A, A54F, A58Y
Experimental: as §1, §2

F54A-RXFP1(1–72) = molecular target: T7, F54A-RXFP1(1–72) (Homo sapiens, UniProt Q9HBX9, F76A); experiment: as above; type: binding; details: 50 μM F54A-RXFP1(1–72), 0.2 μM Mn2+-DTPA-(A)-H2; versus wild type
T7 construct: GB1 (N, cleaved yes); made in house; host or cells: E. coli BL21 (DE3) trxB
T7 sequence (Q9HBX9 23-94 F76A): T2 sequence (Q9HBX9 23-94 F76A/Y80A) with A58Y
Experimental: as §1, §2

RXFP1 [2] = molecular target: T1, RXFP1; experiment: cAMP activity assay (pCRE β-galactosidase reporter), transfected HEK293T cells; type: cell-based; details: Mn2+ replacing Eu3+ in the DTPA cage; method not described
Experimental: Media was aspirated and plates stored frozen at −80 °C overnight. […] H2 relaxin dilutions were prepared in minimal media containing 1% DMSO. Positive and negative control stimulations were achieved by incubation with 5 μM Forskolin and minimal media/1% DMSO, respectively. Plates were developed by 10 min of incubation in 25 μl of lysis buffer 1 (100 mM Na2HPO4, pH 8.0, 0.2 mM MgSO4 0.01 mM MnCl2); a further 10 min of incubation in 100 μl of buffer 2 (100 mM Na2HPO4, pH 8.0, 2 mM MgSO4, 0.1 mM MnCl2, 0.5% Triton X-100, 40 mM β-mercaptoethanol); then to each well 25 μl of the β-galactosidase substrate, chlorophenol red-β-D-galactopyranoside (Roche) was added. All incubation steps were conducted with orbital shaking. Color-change was monitored and readings were taken on a Benchmark Plus Microplate Reader (Bio-Rad) at 570 nm. A minimum of three separate experiments were performed, each of them in triplicate, and data were pooled and presented as percentages of the maximum response induced by 5 μM Forskolin±s.e.m.

binding to RXFP1 (RXFP1 [1]): no difference
line-broadening by Mn2+-DTPA-(A)-H2 (binding) (F54A/Y58A RXFP1(1–72)): substantially reduced
line-broadening by Mn2+-DTPA-(A)-H2 (binding) (F50A RXFP1(1–72)): substantially reduced
line-broadening by Mn2+-DTPA-(A)-H2 (binding) (F50A^Ins-RXFP1(1–72)): reduced peak broadening
line-broadening by Mn2+-DTPA-(A)-H2 (binding) (G41A/D42A-RXFP1(1–72)): attenuated
activating RXFP1 (RXFP1 [2]): no difference
Substance: Mn^2+-DTPA-(A)-H2: H2 relaxin with a DTPA cage at the N-terminus of the A-chain loaded with Mn2+ (paramagnetic label)
line-broadening by Mn2+-DTPA-(A)-H2 (binding) (G45A/W46A-RXFP1(1–72)): substantially less than that observed for wild-type RXFP1(1–72)
line-broadening by Mn2+-DTPA-(A)-H2 (binding) (F54A-RXFP1(1–72)): less than that observed for wild-type RXFP1(1–72)
